Source: article PMC8593620

B1: RNF128 Iso1 (GRAIL): N48A (protein)
parent chain: MGPPPGAGVSCRGGCGFSRLLAWCFLLALSPQAPGSRGAEAVWTAYLNVSWRVPHTGVNRTVWELSEEGVYGQDSPLEPVAGVLVPPDGPGALNACNPHTNFTVPTVWGSTVQVSWLALIQRGGGCTFADKIHLAYERGASGAVIFNFPGTRNEVIPMSHPGAVDIVAIMIGNLKGTKILQSIQRGIQVTMVIEVGKKHGPWVNHYSIFFVSVSFFIITAATVGYFIFYSARRLRNARAQSRKQRQLKADAKKAIGRLQLRTLKQGDKEIGPDGDSCAVCIELYKPNDLVRILTCNHIFHKTCVDPWLLEHRTCPMCKCDILKALGIEVDVEDGSVSLQVPVSNEISNSASSHEEDNRSETASSGYASVQGTDEPPLEEHVQSTNESLQLVNHEANSVAVDVIPHVDNPTFEEDETPNQETAVREIKS
B2: RNF128 Iso1 (GRAIL): 3NA (protein)
parent chain: MGPPPGAGVSCRGGCGFSRLLAWCFLLALSPQAPGSRGAEAVWTAYLNVSWRVPHTGVNRTVWELSEEGVYGQDSPLEPVAGVLVPPDGPGALNACNPHTNFTVPTVWGSTVQVSWLALIQRGGGCTFADKIHLAYERGASGAVIFNFPGTRNEVIPMSHPGAVDIVAIMIGNLKGTKILQSIQRGIQVTMVIEVGKKHGPWVNHYSIFFVSVSFFIITAATVGYFIFYSARRLRNARAQSRKQRQLKADAKKAIGRLQLRTLKQGDKEIGPDGDSCAVCIELYKPNDLVRILTCNHIFHKTCVDPWLLEHRTCPMCKCDILKALGIEVDVEDGSVSLQVPVSNEISNSASSHEEDNRSETASSGYASVQGTDEPPLEEHVQSTNESLQLVNHEANSVAVDVIPHVDNPTFEEDETPNQETAVREIKS
B3: RNF128 Iso1 (GRAIL): N101A (protein)
parent chain: MGPPPGAGVSCRGGCGFSRLLAWCFLLALSPQAPGSRGAEAVWTAYLNVSWRVPHTGVNRTVWELSEEGVYGQDSPLEPVAGVLVPPDGPGALNACNPHTNFTVPTVWGSTVQVSWLALIQRGGGCTFADKIHLAYERGASGAVIFNFPGTRNEVIPMSHPGAVDIVAIMIGNLKGTKILQSIQRGIQVTMVIEVGKKHGPWVNHYSIFFVSVSFFIITAATVGYFIFYSARRLRNARAQSRKQRQLKADAKKAIGRLQLRTLKQGDKEIGPDGDSCAVCIELYKPNDLVRILTCNHIFHKTCVDPWLLEHRTCPMCKCDILKALGIEVDVEDGSVSLQVPVSNEISNSASSHEEDNRSETASSGYASVQGTDEPPLEEHVQSTNESLQLVNHEANSVAVDVIPHVDNPTFEEDETPNQETAVREIKS
B4: RNF128 Iso1 (GRAIL): N59A (protein)
parent chain: MGPPPGAGVSCRGGCGFSRLLAWCFLLALSPQAPGSRGAEAVWTAYLNVSWRVPHTGVNRTVWELSEEGVYGQDSPLEPVAGVLVPPDGPGALNACNPHTNFTVPTVWGSTVQVSWLALIQRGGGCTFADKIHLAYERGASGAVIFNFPGTRNEVIPMSHPGAVDIVAIMIGNLKGTKILQSIQRGIQVTMVIEVGKKHGPWVNHYSIFFVSVSFFIITAATVGYFIFYSARRLRNARAQSRKQRQLKADAKKAIGRLQLRTLKQGDKEIGPDGDSCAVCIELYKPNDLVRILTCNHIFHKTCVDPWLLEHRTCPMCKCDILKALGIEVDVEDGSVSLQVPVSNEISNSASSHEEDNRSETASSGYASVQGTDEPPLEEHVQSTNESLQLVNHEANSVAVDVIPHVDNPTFEEDETPNQETAVREIKS

Assay: immunoblot of steady-state levels, CpA cells
Conditions: glycan lost; control: wild-type Iso1

expression_or_secretion, decreases:
B1
B2
B3
B4
